Results as given in the supplement of paper PMC12764529.
± gives the half width of the 95% confidence interval.

Legend:
[1] = folding stability dG unfold from trypsin proteolysis; higher = more stable
Protocol: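 Folding stability of de novo designed mini-proteins (<80 aa, no Cys; designed by TrROS, TrMRF, ProteinMPNN and the joint model) was measured by cDNA display proteolysis with trypsin and chymotrypsin. Each protease was used at 11 concentrations in a threefold dilution series plus a no-protease condition. K50 was inferred by Bayesian fitting of sequencing counts, and dG unfold was derived against a sequence-predicted unfolded-state K50 (Tsuboyama et al. method). Sequences shown include variable-length N-terminal GS-type padding (SAGGSAGG...) inside a display construct carrying a PA tag. Rows were kept only if the AF2 dimer inter-PAE was >15, to exclude likely homo-oligomers.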

[2] = folding stability dG unfold (combined trypsin and chymotrypsin); higher = more stable
In short: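 How resistant each design was to proteolysis was captured as K50, inferred by Bayesian fitting of sequencing counts. Unfolding free energy was then derived relative to a sequence-predicted unfolded-state K50 and a shared folded-state K50, per protease or combined. Digestion used trypsin and chymotrypsin at 11 threefold-diluted concentrations plus a no-protease condition, on mini-proteins under 80 residues without cysteine in a PA-tagged cDNA display construct. Designs were kept only when AlphaFold2 dimer inter-PAE was above 15.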

| Sequence | folding stability dG unfold [1] [kcal/mol] | folding stability dG unfold [2] [kcal/mol] |
| --- | --- | --- |
| SAGGSAGGSPPYIRVKIEFQNPNGQERKFKITIPPDQPLSQAKDIAPDFAKNGYPVRIEDIEISAGGSAGGS [r12_804_TrROS] | -0.209 ± 0.17 | < -1 |
| SAGGSAGGSSAEEIAKELGYKEIEVKPLRPVSTETLDSGGYSQKTEYVTTIKLPDGTEIEIPVSAGGSAGGS [r12_221_JUSTAS] | 0.788 ± 0.025 | 0.275 ± 0.051 |
| SAGGSAGGSSSPEEIKAEFKKKGYPKVEVKPVTPDTYLVTVTSPGTGKTTEYPITGSPSGKGLSAGGSAGGS [r12_170_JUSTAS] | -0.822 ± 0.35 | < -1 |
| SAGGSAGGSSVLRVTVEIPETGETVELTVPPSVTEEDVRARIEAEGHAIEKIEVTESEVPPLASAGGSAGGS [r12_955_JUSTAS] | -0.358 ± 0.096 | < -1 |
| SAGGSAGGSVKELAKKLNIKEVKVEPVDGEKVTLIKIKVKNKKTKKEYEKTILIKDKKTGKILSAGGSAGGS [r12_133_TrROS_Hall] | -0.405 ± 0.23 | -0.845 ± 0.38 |
| SAGGSAGGSWPFRIEIYNPENGKEEVKDIPGDLDELKDLIPPGYRVKIEFGDEEITIPIDDIKSAGGSAGGS [r20_36_TrROS] | -0.331 ± 0.16 | -0.587 ± 0.27 |
| SAGGSAGSMSIEEVVEKAKEEGIEVEVTSLPESGLTVVTITKKLPNGEVVESIILEHPEGTTTVLSSAGGSA [r15_1051_JUSTAS] | 0.644 ± 0.057 | 0.0134 ± 0.14 |
| SAGGSAIKITKVEYEPNPDGWREIHFKATPGDPDFLDEIAEALPPDNIEPTEVDEKGYYEIRIPRPSAGGSA [r15_386_TrROS] | 0.0955 ± 0.058 | -0.291 ± 0.17 |
| SAGGSALIVLEGDLDSVVALAKEAGDPNVKVEPVADFNDDPSEPRLYRITIERDGEPDGELLFLDPSAGGSA [r15_428_TrMRF] | -0.0896 ± 0.1 | < -1 |
| SAGGSAMIRTFNIKFPGKSEEEALEAIKNLPEEVTEKIEEVKVEEIKKEGDSIYVKLTIKVPKEILSAGGSA [r15_244_JUSTAS] | 0.636 ± 0.19 | 0.00147 ± 0.51 |
| SAGGSANTIMIPFDDLTPDKILEAAEESPDPIMIHNPDNGRFLTVEVEDGGIDDVTWEPFDPEDFGSAGGSA [r15_751_TrROS] | 0.499 ± 0.042 | -0.135 ± 0.18 |
| SAGGSAPNEEITIPIRIRVENPEDGKPIHEIPIPIKVPKGQTQDQILDQAKNWMEEHGMKIKEIEISAGGSA [r15_195_TrROS] | -1.32 ± 0.86 | < -1 |
| SAGGSASIDELKEEILAKTPPDVVTTGYATSSDSLSTRTYSTPAGHRVVISYTDNEIKSVSLEKAGSAGGSA [r15_175_JUSTAS] | 0.333 ± 0.16 | -0.138 ± 0.22 |
| SAGGSASVPPGKSVTLRISFPETGEERTITLDVKSSEELEAAAELEVPRPDGTPVPVTVSVVETVPSAGGSA [r15_797_JUSTAS] | 0.386 ± 0.094 | 0.085 ± 0.24 |
| SAGGSAVPPSANVGPLKEKIEVTEDPEKGTKTYTRVLKDPATGKTIVETSVIPPDGSVTLVKTVLVSAGGSA [r15_146_JUSTAS] | -0.0156 ± 0.073 | -0.307 ± 0.12 |
| SAGGSDYVGRVQIDKVDPEDPGQVRINLEWWQPNGKAIPIEHTIPNEQLKNNPPDATIEFKMEPPPSAGGSA [r2_128_TrROS] | -0.514 ± 0.32 | < -1 |
| SAGGSEVRELAEAIAAARGLPLRAIETKEVTPDTVEITMELPDDRTLTVTVPRSPEGGYEVTVTEDASAGGS [r8_284_JUSTAS] | -0.349 ± 0.26 | < -1 |
| SAGGSMIEVEIENPDPSVSPEEIAERVIRELTPDGGPLQPLEIKPTLVGDKPVYKIKIYIPDPELIKESAGG [r13_979_JUSTAS] | -0.519 ± 0.2 | < -1 |
| SAGGSMPITVSVPVPPDVPLEEVAERIEKELREAGIEADVREVTRVPGEGRILLHFDAGKTGVIPASAGGSA [r2_242_JUSTAS] | -0.251 ± 0.12 | < -1 |
| SAGGSPKPIAEAILKELGYPDAIVKNIPIEKLENGIIIIPLEVIYPKNPKKGKPIKRIIKPNEKFASAGGSA [r2_137_TrMRF] | 0.108 ± 0.095 | < -1 |
| SAGGSSMEELIKAVLEAAEAGKKAVNVKMPLPDGGEIEILDGGVIRIIPPDGVPLEEKIPVSELILSAGGSA [r2_97_JUSTAS] | 0.442 ± 0.044 | < -1 |

| Sequence | folding stability dG unfold [1] [kcal/mol] | folding stability dG unfold [2] [kcal/mol] |
| --- | --- | --- |
| SAGGSSMLSPSESLPLPPDEDVEVSLPSPLSAKLTYDPATGTVSVTVTDPNNPGVPLSSTTRPLTASAGGSA [r2_266_JUSTAS] | 0.662 ± 0.037 | -0.203 ± 0.22 |
| SAGGTKYTVSLRPPPTALPSREFTDSPLEIVEALPEDTTEATVTVDNNSTSTTVTFTTKEDLIAAVASSAGG [r13_299_JUSTAS] | 0.00719 ± 0.14 | -0.14 ± 0.33 |
| SAGGTPIGDGQTGESSTFDEEVTDPVTGEKVKVKVTIPVTIDPETGKTVRTVTITNPLEGKTTTTLTLSAGG [r13_262_JUSTAS] | -0.379 ± 0.13 | < -1 |
| SAGGWIPIDEIKDLLDNGKPMPLEQIVKEIQKDFGYPVTIEEDDDSFWIHVENPNTGEPREEIEIDPSAGGS [r8_105_TrROS] | 0.354 ± 0.11 | -0.392 ± 0.38 |
| SAGGYDKEGKPIRVVEINIPPDQPDTILKFAREEIDNNRWDIIHITSPNQVKWIKQAFPEKGIPIHIQSAGG [r13_353_TrROS] | 0.311 ± 0.3 | -0.167 ± 0.38 |
| SAGKVEVKVDEETGTVTVTVEVNGELVEKKVEVKPPPPVKVFSAEELRERNPELKKLLEENPDKLVVLESAG [r5_957_TrROS_Hall] | -0.473 ± 0.26 | < -1 |
| SAGMEAEAERIAEELERELPPTYRITSITVTPQPDNTWVAPITIEKVDAEGRVLGPSTVTVTLPPGLGSAGG [r19_28_JUSTAS] | 0.494 ± 0.044 | -0.452 ± 0.14 |
| SAGMEIKIEKLEDGTYKITIKLYNKETNEEIEEIEIEVKKLKDGTYKVKIKIKNKETGKEFELEFEIKPSAG [r5_610_TrROS_Hall] | 4.02 ± 0.34 | > 6 |
| SAGMKELVLVERDAPVLGVYLDPETGRPRLEPRPVPVVVVVEVEPDSEAARELAEKLAPEDVRVEVLPASAG [r5_468_TrMRF] | 0.164 ± 0.05 | -0.483 ± 0.24 |
| SAGMKFKPGAKVEVYNKKTKKKIVLPVEELRKLAREKFGVETEEERLAEAIKEKAKENGFEIVKIEPVSAGG [r19_67_TrROS_Hall] | -0.166 ± 0.35 | -0.0445 ± 0.44 |
| SAGMSSSEVIDIDAGPEKLKELVAKIKKESPNYTIVVTDPETGKPTLLDPSELKNIPGPVKLTITKYPQSAG [r5_437_JUSTAS] | -1.16 ± 0.66 | < -1 |
| SAGMTTETTEKTAPDGKTRTTTVTYPSEEKAADTTTVVVTETPVETDGSERILTTTTVYKNGVKVATTGSAG [r14_958_JUSTAS] | -0.851 ± 0.56 | < -1 |
| SAGNIKKGSIYMPEDGWMIKIEYPDPGKEIHIPFDDDLSEIKDNLEEPGFEPVAVEVEPFPPGQPMEISAGG [r19_386_TrROS] | -1.05 ± 0.22 | < -1 |
| SAGNPKIIEEETIPMPDGGPMKIYVDPEAPRIEIYNPDNGKPEEFPIPPGEKLEFPMPPDGWMTVKVLSAGG [r19_118_TrROS] | -0.279 ± 0.14 | < -1 |
| SAGSMEVKVEIPEEVLKKIESAPPGTVVEYTETVTITTTTTIPGPGNPVPLTSTTPSPIKLTYTKPSSPSAG [r5_946_JUSTAS] | -0.608 ± 0.06 | -0.915 ± 0.31 |
| SAKPIPAKDITINMHPPPGGNFNFEIELDDKEIGEHPFKSPEDMQEGMKEIAKELAALLGPDDIKIKPWSAG [r14_791_TrROS] | 0.4 ± 0.075 | -0.0161 ± 0.25 |
| SAKVFTAEEIKALAEELEKAGLEVEAVVLDKDGKIVAVAPKELLKPPPVEEVKEVKVEVEDDPEKLKAAKSA [r9_568_TrROS_Hall] | -0.442 ± 0.97 | < -1 |
| SALINLKKEDVEKLVKALEKEGNYKVKIKPVKVVYKPKDGSKKPIGAVKIEVIDPDNPKSLLDKIKKAGSAG [r14_628_TrMRF] | -1.29 ± 0.62 | < -1 |
| SAMIKIEIVLPEEDLEKLLESEEVKELAKELEKKTGLKITSIKIEKKEVEVNGEKKKVVVITIEIEPEPSAG [r14_819_TrROS_Hall] | 3.42 ± 0.24 | > 6 |
| SAMKTTETITVTVEMEPEVAEEVAEEIAEKIEKEKNYEITEVKVSVFPTDGKYVVRVPIKITYPTPELKSAG [r14_219_JUSTAS] | -0.771 ± 0.42 | < -1 |
